Reference: patent US20070269427A1 (GlaxoSmithKline, published 2007)

T1: rat MAG-Fc fusion protein (R&D systems; 538-MG) (rat; human, UniProt P07722 20-516)
T1 construct: Bought reagent; not shown: human Fc
T1 sequence (looked up): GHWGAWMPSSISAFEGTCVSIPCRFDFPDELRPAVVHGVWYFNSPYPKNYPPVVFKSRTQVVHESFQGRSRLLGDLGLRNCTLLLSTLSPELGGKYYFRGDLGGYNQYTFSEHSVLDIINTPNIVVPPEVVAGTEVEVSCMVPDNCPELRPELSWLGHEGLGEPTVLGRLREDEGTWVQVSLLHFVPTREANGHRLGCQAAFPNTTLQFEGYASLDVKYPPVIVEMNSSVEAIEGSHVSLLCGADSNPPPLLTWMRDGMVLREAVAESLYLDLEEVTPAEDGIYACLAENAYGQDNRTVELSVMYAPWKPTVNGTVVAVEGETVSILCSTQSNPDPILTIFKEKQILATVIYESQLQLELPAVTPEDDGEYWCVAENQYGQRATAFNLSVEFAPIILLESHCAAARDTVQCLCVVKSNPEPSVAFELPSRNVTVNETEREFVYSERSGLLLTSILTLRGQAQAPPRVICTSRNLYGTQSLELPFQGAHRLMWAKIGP


Legend:
[1] = target: T1, rat MAG-Fc fusion protein (R&D systems; …); assay: direct binding ELISA on coated rat MAG-Fc (FIG. 6)
Procedure: (§1) 96-well Nunc Maxisorp plates were coated overnight at 4° C. with rat MAG-Fc fusion protein (2.5 μg/ml; R&D Systems; Cat.No. 538-MG) in PBS. Plates were washed twice with PBS containing Tween20 (0.1% v/v; PBST) and blocked with PBS containing BSA (1% w/v) for 1 h at room temperature (RT). Purified humanised antibody was adjusted to a starting concentration of 5 μg/ml in blocking buffer and then serial diluted. Antibody samples were incubated 1 h at RT and plates then washed 3× with PBST. Secondary antibody (Goat anti-human light chain specific-peroxidase conjugate; Sigma A-7164) was added diluted 1/5000 in blocking buffer and incubated for 1 h at RT. Wells were washed three times as above and binding detected by adding substrate (OPD tablets dissolved according to instructions; Sigma P-9187). Colour development was monitored and the reaction stopped using 3M H₂SO₄. Colour development was read at 490 nm.

[2] = target: T1, rat MAG-Fc fusion protein (R&D systems; …); assay: direct binding ELISA on coated rat MAG-Fc, purified antibody
Procedure: as §1

| binding result [1] | binding result [2] | Binder |
| --- | --- | --- |
| binds | – | Humanised anti-MAG antibody BVh1/CVl1 (antibody, V domains shown, also called BVh1/CVI1) VH: QVQLVQSGSELKKPGASVKVSCKASGYTFTNYGMNWVRQAPGQGLEWMGWINTYTGEPTYADDFTGRFVFSLDTSVSTAYLQISSLKAEDTAVYYCARNPINYYGINYEGYVMDYWGQGTLVTVSS VL: not shown |
| – | binds | Humanised anti-MAG antibody BVh3/CVl3 (antibody, IgG1, V domains shown, also called BVh3/CVI3) VH: QVQLVQSGSELKKPGASVKVSCKASGYTFTNYGMNWVRQAPGQGLEWMGWINTYTGEPTYADDFTGRFVFSLDTSVSTAYLQISSLKAEDTATYFCARNPINYYGINYEGYVMDYWGQGTLVTVSS VL: DIVMTQSPDSLAVSLGERATINCKSSHSVLYSSNQKNYLAWYQQKPGQPPKLLIYWASTRESGVPDRFSGSGSGTDFTLTISSLHTEDVAVYYCHQYLSSLTFGQGTKLEIKR |
